Results: the DeepSol protein solubility set

Experiment: soluble on expression in E. coli; label from the status in PepcDB or PDB records

Q: Which “soluble on expression in E. coli” value does the source give for “MGSDKIHHHHHHMAKEILVAYGVDIDAVAGWLGSYGGEDSPDDISRGLFAGEVGIPRLLKLFKKYHLPATWFSPGHSIETFSEQMKMIVDAGHEVGAHGYSHENPIAMTAKQEEDVLLKSVELIKDLTGKAPTGYVAPWWEFSNITNELLLKHGFKYDHSLMHNDFTPYYVRVGDSWSKIDYSLEAKDWMKPLIRGVETDLVEIPANWYLDDLPPMMFIKKSPNSFGFVSPHDIGQMWIDQFDWVYREMDYAVFSMTIHPDVSARPQVLLMHEKIIEHINKHEGVRWVTFNEIADDFLKRNPRKK” here?
A: Its value is “not soluble”.

Q: Which “soluble on expression in E. coli” value does the source give for “MGSDKIHHHHHHMYRLMDRQQMPFLFRFLSDSELYAFKDGQIISTFNKCGLFFCRKGNVEVSLEDKHFQINPGDVYIYMASTLVHLLHKSEDAEGVMVEVDLDYIIPIVNRVINVENQLFMRKHPCISLSDKQRAHLEYLLDNLRERIEAEDVQEVNLQQQRLTLELIKSMGQTFCYEILNMYFANQPMQPLPQNKKDVIFQNFMLALFRLYRKERDVAYYARMQHITPRYFSTIIKEKSGNSALQWIVQMVITEAKQLLEGSDLSIKEIADQLNFPTQSFFGKYFKQYVGISPKEYRKGKLRIKDGI” here?
A: Its value is “not soluble”.

Q: Which “soluble on expression in E. coli” value does the source give for “MGSDKIHHHHHHMPHDDHITALCFNNAESYEKPILVTASRDGHFKVWILTDDSDIYKKAIAWTCDFVGSYHKYQATNCCFSEDGSLLAVSFEEIVTIWDSQTWELKCTFCQRAGKIRHLCFGRLTCSKYLLGTTDNGILCCWNLLSCSIQWSAKLNVRVMEPDPYSDHVAAVAQSSAGSDLFVFKPSEPRPLYIQKNVSREEVQWGVFVPRDVPESFTSETHQWLNRSQFYFLTKSQSLLTFSTKSPEEKLTPTSKQLLAEESLPTTPFSFILGKHRQQQGAKLTETSENELVQLPLTENIPAITELLHTPAHVLPSASFLCSLFVNSLLLSKETKSAEEVPDDVDMEGNKESDDSDEEYDLTEKDKETNNTDLGEDAIHQLSKSEEKELRKFRKVDYSWLTAL” here?
A: The value was “not soluble”.

Q: For “MHEWALADAIVRTVLDYAQREGASRVKAVRVVLGELQDVAEDIVKFAMEQLFAGTIAEGAEIEFVEEEAVFKCRNCNYEWKLKEVKDKFDERIKEDIHFIPEVVHAFLACPKCGSHDFEVVKGRGVYVAGIKIEKEGGS”, which “soluble on expression in E. coli” value is on record?
A: The value was “soluble”.

Q: Which “soluble on expression in E. coli” value does the source give for “MGSDKIHHHHHHMWTPCGRADGNANSPRQSQFALDDLIDIPTDFSLYSTALKKFSQGMERPMYRNFRIVPNIIFGRGSFNQLDDVLKDRRVTADSWMVFVVDDVFTGKPLEGRFPLRGRDLLLWVNVDDEPKTRYIDELVARIRAYSPTAPAGIAGIGGGSAMDIAKAVSLMLNNPGSSADYQGWDLIKNPAVYHVAVPTLAGTGAEISRTTILTGPEKKLGINSDYTLYDQILLDPELLAGVPKNQWFYTGMDCYIHDVESLNGTFINEFSKAYGEKSRDLCREVFLDDSPAKDDKLMMASYFGGMSIAYSQVGACHALSYGLSYVLGIHHGVGCCIAFDQLEEIYPEGVQEFRQMMEKHDIPLPRNLTKDLDSASMEKMVTTALNLVPLWENCLGPDWANIMTRERAMELYKKM” here?
A: The value was “not soluble”.

Q: With “MLGENHALIYEFPDFADHIRHLKKNNTIFATMAQRYHELDHKIRALELTKVPTDDEHFVALKLERLHLKDKLYQYLVHDAI” as the sequence, how does the “soluble on expression in E. coli” value read?
A: The value was “soluble”.

Q: Which “soluble on expression in E. coli” value does the source give for “MGSDKIHHHHHHMYAAHPIKPLKAPKLKTQFLRRVFVGASIRRWNDQACPLEFVELDKQAHKAMIAYLLAKDLKDRGNDLDLDLLIKFFCFEFLERLVLTDIKPPIFYALQQTHSQELASYVVQSLQDEISMYFSLEELKEYLSHRPQILETQILESAHFYASKWEFDIIYHFNPNMYGVKEIKDKIDKQLHNNEHLFEGLFGEKEDLKKLVSMFGQLRFQKRWSQTPRVPQTSVLGHTLCVALMGYLLSFDLKACKSMRINHFLGGLFHDLPEILTRDIITPIKQSVAGLDHCIKEIEKKEMQNKVYSFVSLGVQEDLKYFTENEFKNRYKDKSNKIIFTKDAEELFTLYNSDEYLGVCGELLKVCDHLSAFLEAQISLSHGISSNDLIKGAQNLLELRSQTELLDLDLGKLFRDFK” here?
A: Its value is “not soluble”.

Q: For “MGSDKIHHHHHHMRKVAIYSRVSTINQAEEGYSIQGQIEALTKYCEAMEWKIYKNYSDAGFSGGKLERPAITELIEDGKNNKFDTILVYKLDRLSRNVKDTLYLVKDVFTANNIHFVSLKENIDTSSAMGNLFLTLLSAIAEFEREQIKERMQFGVMNRAKSGKTTAWKTPPYGYRYNKDEKTLSVNELEAANVRQMFDMIISGCSIMSITNYARDNFVGNTWTHVKVKRILENETYKGLVKYREQTFSGDHQAIIDEKTYNKAQIALAHRTDTKTNTRPFQGKYMLSHIAKCGYCGAPLKVCTGRAKNDGTRRQTYVCVNKTESLARRSVNNYNNQKICNTGRYEKKHIEKYVIDVLYKLQHDKEYLKKIKKDDNIIDITPLKKEIEIIDKKINRLNDLYINDLIDLPKLKKDIEELNHLKDDYNKAIKLNYLDKKNEDSLGMLMDNLDIRKSSYDVQSRIVKQLIDRVEVTMDNIDIIFKF”, which “soluble on expression in E. coli” value is on record?
A: The value was “not soluble”.

Q: Which “soluble on expression in E. coli” value does the source give for “MASDVTVNVSAEKQVIRGFGGMNHPAWAGDLTAAQRETAFGNGQNQLGFSILRIHVDENRNNWYKEVETAKSAVKHGAIVFASPWNPPSDMVETFNRNGDTSAKRLKYNKYAAYAQHLNDFVTFMKNNGVNLYAISVQNEPDYAHEWTWWTPQEILRFMRENAGSINARVIAPESFQYLKNLSDPILNDPQALANMDILGTHLYGTQVSQFPYPLFKQKGAGKDLWMTEVYYPNSDTNSADRWPEALDVSQHIHNAMVEGDFQAYVWWYIRRSYGPMKEDGTISKRGYNMAHFSKFVRPGYVRIDATKNPNANVYVSAYKGDNKVVIVAINKSNTGVNQNFVLQNGSASNVSRWITSSSSNLQPGTNLTVSGNHFWAHLPAQSVTTFVVNRLEHHHHHHHH” here?
A: The value was “soluble”.

Q: For “INLSTLPEHLTYLVRSSRVLQELHESEAQNRALLNAIPDMMLHVCREGTILDFRAGNGCAYAAFGGNLRGRTIADLLPPGAAAQFMAQVGHALATGTMMVCEYELEGPGGLNTHEARIVANG”, which “soluble on expression in E. coli” value is on record?
A: The value was “not soluble”.

Q: For “MNLVSLRDSPQYLERAIAYFQSKWGNENTKMVYDNCFRHSLNAENPIPQWYLLMNGDEIIGCAGLTSNDFNSRADLYPWLVALFIEEKYRGNHYANLLIEQAKKDTLKFGFSKLYLSTSHTSYYERLGFTYIGDCWHPWGESSRVYEIILKF”, which “soluble on expression in E. coli” value is on record?
A: The value was “not soluble”.

Q: For “MRCVGVGNRDFVEGVSGGAWVDLVLEHGGCVTTMAQGKPTLDFELTKTTAKEVALLRTYCIEASISNITTATRCPTQGEPYLKEEQDQQYICRRDVVDRGWGNGCGLFGKGGVVTCAKFSCSGKITGNLVQIENLEYTVVVTVHNGDTHAVGNDTSNHGVTATITPRSPSVEVKLPDYGELTLDCEPRSGIDFNEMILMKMKKKTWLVHKQWFLDLPLPWTAGADTSEVHWNYKERMVTFKVPHAKRQDVTVLGSQEGAMHSALAGATEVDSGDGNHMFAGHLKCKVRMEKLRIKGMSYTMCPGKFSIDKEMAETQHGTTVVKVKYEGAGAPCKVPIEIRDVNKEKVVGRIISSTPLAENTNSATNIELEPPFGDSYIVIGVGNSALTLHWFRKGSSIGKSLEHHHHHHHH”, which “soluble on expression in E. coli” value is on record?
A: The value was “not soluble”.

Q: With “MAHHHHHHMIRRKLYCSFLFLAILETFKVNQRWSIFISAWYAHEDVDSDYSHSKLYEVLGVHKYATTEEIKKAYRKLSKKYHPDKAKDKNSNNRFNEIAEAYEILGDEEKRKVYDHHGLEAAKNVESNKMDEDPTDHFNIYESFFGGAGGFRREEMKKADSLTLNVEMSLEQLYNGDFFSVIYTRDVNCLRSDDCIMKKKECSGKGYKTVTQQVAPGFIMQNKMRDENCIDRGKAWNPKCSYCPNGMKEEKTIELTLEVEKGMKNNDKIVFEKKGKQEIGYESGDVIFVIQTKKHKVYERKNNDLHQFYEISLKDALIGFSKDIDHISGAPIRINKQTVTFHNEILKVQNKGMPIRDSSKYGDLYIKFLVQFPKYLTEEQKRAISQFL” as the sequence, how does the “soluble on expression in E. coli” value read?
A: Its value is “not soluble”.

Q: For “MKIIIIGGVAGGATTAARIRRTNEAAEIILLEKGKYISYANCGLPYYIGGVIKEREKLFVQTPEAFSTRFRVDVRTENEVIFIDRKRKTVTVRQSSGDTYEESYDKLLISTGASPVRPPLPGIDLNGIFTLRNVADTDRIKEYINSHAPRKAVVIGAGFIGLEMAENLHAQGAKVSIVEMGNQVMAPIDFSMASLVHQHLMDKGVNLYLEQAVASFERDGKGLKVIFKNGQSISADIVILSIGVRPETTLARAAELKIGEAGGIAVNDYLQTSDESIYAIGDAIEFRHPITGKPWLNYLAGPANRQGRIVADNIQGAHIPYEGAIGTSIAKVFDMTVASTGLPGKRLRQAEINYMSSTIHPSSHAGYYPDAMPMSIKITFDPKTGKLYGGQIVGYDGVDKRIDEIALVIKHEGTIYDLMKVEQAYAPPFSSAKDPVAVAGYVAENIITGKVQPVYWRQLRDIEMENNFLLDVRTPDEFSLNTLPGAVNIPLDELRDRLDELPKDKMIYTFCAVGLRGYLAYRILVQHGFEKVRNLSGGLKTYHAAAAPIILREESENEVPAQPNANIQQPADAQPQKTVSPVEAVKTIRVDACGLQCPGPILKMKKTMDSLVSGDRVEITSTDPGFPRDAAAWCNSTGNQLISKETAGGKSVVVIEKGEPKSCNIVTSCEGKGKTFIMFSDDLDKALATFVLANGAAATGQKVTIFFTFWGLNVIKKLHKPNVEKDIFGKMFGMMLPSSSRKLKLSKMSMGGIGGKMMRYIMNRKGIDSLESLRQQALENGVEFIACQMSMDVMGVKQEELLDEVTIGGVATYMERADNANINLFILEHHHHHH”, which “soluble on expression in E. coli” value is on record?
A: The value was “not soluble”.

Q: For “MFGGDTLYELRCSLQLAETEREGGFSPHISPFTAVNDLGHLLGRAGFNTLTVDTDEIQVNYPGMFELMEDLKGMGESNCSWNRKALLHRDTMLAAAAVYREMYRNEDGSIPATFQIYHMIGWKYHDSQARPAERGSATVSFGELAKLNDVMSHEKK”, which “soluble on expression in E. coli” value is on record?
A: Its value is “soluble”.

Q: For “MATPASGALLQQMNLASQSLNYELSFISINKQGVESLRYRHARLDNRPLAQLLQMDGPRREVVQRGNEISYFEPGLEPFTLNGDYIVDSLPSLIYTDFKRLSPYYDFISVGRTRIADRLCEVIRVVARDGTRYSYIVWMDTESKLPMRVDLLDRDGETLEQFRVIAFNVNQDISSSMQTLAKANLPPLLSVPVGEKAKFSWTPTWLPQGFSEVSSSRRPLPTMDNMPIESRLYSDGLFSFSVNVNRATPSSTDQMLRTGRRTVSTSVRDNAEITIVGELPPQTAKRIAENIKFGAAQHHHHHH”, which “soluble on expression in E. coli” value is on record?
A: The value was “soluble”.

Q: For “MVNVLSNLSNLSNILGKSNKGVGIELAPERMNIVHLCKQRQGLKIESLTTIPVPEGIVVDGQINDPPRMAEIIQQGMAESKIKASRVATCIPGRDAIVRVIPVPAELDNKELREMVLNHEAALYLPYPREEADVDYQKLGYFVDEDGIEKVQVLLVATRKEITDTYINTFAEAGLKVDVLEINSFALIRTIRDQLRLFGPQEAAVLVDIEFDSTEIAIIINGVPQFSRTVPIGTYQLQAALSRAMNLPTSRDMDMLMGMTIPTNSMDVGRTGTTGVNPGMGPMLKILGELSDELRRSIDFYINQSEGLEVAQILLAGTGGGLQQLDEFFTQRLGFPTTQIDPIRDLSLQVEAEKYPPVQRPGLGIILGLAMREG”, which “soluble on expression in E. coli” value is on record?
A: Its value is “not soluble”.

Q: Which “soluble on expression in E. coli” value does the source give for “MAVPSGVHRCFFRGQSVSLEKLLSIFASEVCEQVVFIGENHEHSVAQQLELRILEALWLSSQRQNRQLLLSLEFLDRSQQHVLNEAMLRDEIESVVPEPYVPLVRFARTNNLAVLAANAPRSITSRVAKQGQQAVMETLSPKERAWCAPTPWPAPSNAYSEAFQAIMQQVMRPDPSSAQAQQERMQRMLQAQSLWDATMAFSIAEALERYPKAQVLHVTGFFHVANRLGTVEMLAHYRNTVNALVSIVYPEELQHSTSALDGDVVIYAP” here?
A: The value was “not soluble”.

Q: With “MSLKIRQARLEDLDRIVELEFENFSVEEAIPPSVFEAHLREIQTSFLVAEKEGRIMGYIEGPVGLHRHLQDQSFTEEIKDYSHEPGGYISVTCLSIAKEAQGLGLGQKLLTALKEVALEDERDGINLTCHDYLIAYYEKHGFVNEGQSQSTFAGETWYDMVWEMKKEGHHHHHH” as the sequence, how does the “soluble on expression in E. coli” value read?
A: Its value is “soluble”.
